From patent publication US20100184697A1 (U S OF AMERICA AS REPRESENTED BY THE SECRETAR, published 2010) come the findings set out here.

Square brackets hold non-standard residues; d marks the D form. Ends that are not written are not given here. rhodamine = not defined here; Nle = CCCC[C@H](N)C(=O)O

In assay [1] the target is T1, STAT3 tagged with eGFP on its N-terminus (UniProt P40763 1-770).
T1 construct: Stably expressed inside living HEK293 cells; also called eGFP-STAT3; not shown: eGFP (enhanced green fluorescent protein) tag
T1 sequence (P40763 whole entry): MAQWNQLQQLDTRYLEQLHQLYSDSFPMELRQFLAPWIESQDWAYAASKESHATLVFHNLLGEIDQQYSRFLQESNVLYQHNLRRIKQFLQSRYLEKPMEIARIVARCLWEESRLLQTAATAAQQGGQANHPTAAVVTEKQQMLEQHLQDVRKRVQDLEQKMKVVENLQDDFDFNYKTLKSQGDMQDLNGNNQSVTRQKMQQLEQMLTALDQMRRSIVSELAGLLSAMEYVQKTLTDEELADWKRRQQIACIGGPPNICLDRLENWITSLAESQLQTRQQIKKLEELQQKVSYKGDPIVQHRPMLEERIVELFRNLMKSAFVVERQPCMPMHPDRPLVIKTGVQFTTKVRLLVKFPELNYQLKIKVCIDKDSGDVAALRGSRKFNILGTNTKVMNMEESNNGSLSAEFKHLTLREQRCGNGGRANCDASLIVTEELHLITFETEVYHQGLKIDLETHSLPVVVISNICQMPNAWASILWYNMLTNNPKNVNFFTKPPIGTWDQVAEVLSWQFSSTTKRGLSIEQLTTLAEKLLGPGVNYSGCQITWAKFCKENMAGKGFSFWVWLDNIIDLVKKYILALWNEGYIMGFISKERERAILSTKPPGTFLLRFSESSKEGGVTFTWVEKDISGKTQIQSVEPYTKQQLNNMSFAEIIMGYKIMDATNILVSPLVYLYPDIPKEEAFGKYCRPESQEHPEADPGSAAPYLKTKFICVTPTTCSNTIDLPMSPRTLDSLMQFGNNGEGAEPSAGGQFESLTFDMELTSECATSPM
The assay is described as follows: FRET efficiency (1-D0/D1) by rhodamine photobleaching in living cells. The text has this:
(§1) An additional cysteine residue was positioned at the C-terminus of penetratin to facilitate labeling. Excitation of eGFP (donor) was facilitated using a 488-nm light source, and the emission spectrum was detected. In the absence of energy transfer between eGFP and rhodamine, excitation of eGFP would lead to an emission peak at 520-540 nm, whereas energy transfer from eGFP to an adjacent rhodamine fluorochrome acceptor would cause an emission in the 560-600 nm range. […] To confirm that FRET was occurring, acceptor photobleaching was performed with a 561 nm laser using an LSM 510 confocal microscope (Zeiss).
(§2) Excitation of eGFP was facilitated, and the emission spectrum detected, in accordance with the methods described in Example 6. FRET efficiency was calculated using equation 1-D0/D1, where D0 is fluorescence intensity of eGFP before rhodamine photobleaching and D1 is the intensity after rhodamine photobleaching.

In the next assay the target is T2, eGFP.
T2 construct: Control, expressed inside living cells
The assay is described as above.
Excerpt: as §1, §2

Assay [2] deals with T3, eGFP-STAT1 (UniProt P42224 1-750).
T3 construct: Expressed inside living cells; not shown: eGFP (enhanced green fluorescent protein) tag
T3 sequence (looked up): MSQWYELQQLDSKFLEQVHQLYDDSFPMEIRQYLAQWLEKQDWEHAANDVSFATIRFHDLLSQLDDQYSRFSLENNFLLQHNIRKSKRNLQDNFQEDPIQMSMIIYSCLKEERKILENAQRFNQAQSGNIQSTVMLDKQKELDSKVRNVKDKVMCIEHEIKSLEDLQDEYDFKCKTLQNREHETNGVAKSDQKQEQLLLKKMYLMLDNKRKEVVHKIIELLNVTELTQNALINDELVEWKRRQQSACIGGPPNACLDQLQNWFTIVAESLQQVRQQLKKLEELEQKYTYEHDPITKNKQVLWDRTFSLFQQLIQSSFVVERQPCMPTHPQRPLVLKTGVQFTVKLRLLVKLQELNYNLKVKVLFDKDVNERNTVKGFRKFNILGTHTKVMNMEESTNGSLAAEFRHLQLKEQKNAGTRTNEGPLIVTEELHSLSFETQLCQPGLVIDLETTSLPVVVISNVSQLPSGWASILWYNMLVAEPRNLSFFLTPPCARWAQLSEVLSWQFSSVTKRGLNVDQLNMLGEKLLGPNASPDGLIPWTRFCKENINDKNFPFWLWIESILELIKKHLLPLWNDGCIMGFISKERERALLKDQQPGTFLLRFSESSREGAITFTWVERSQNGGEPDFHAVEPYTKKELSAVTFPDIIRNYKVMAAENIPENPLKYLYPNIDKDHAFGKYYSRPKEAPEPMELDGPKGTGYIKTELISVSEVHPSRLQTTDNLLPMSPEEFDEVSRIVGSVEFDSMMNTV
The assay is described as above.
Excerpt: as §1, §2

The target in assay [3] is T3, eGFP-STAT1. The assay is described as follows: FRET (eGFP donor, rhodamine acceptor, acceptor photobleaching) in living cells.

B1: rhodamine-labeled STAT3-HEL2A-2 (peptide)
peptide: LDTRYLEQLHKLYRQIKIWFPNRR[Nle]KWKKC(rhodamine)
modifications: not fully specified; reading uncertain
notes: Synthetic peptide; also called STAT3-HEL2A-2 labeled with rhodamine
On to B1, for which the FRET efficiency in assay [1] was 90.8%; with eGFP, about 15.2%; with eGFP-STAT1 [2], about 12.8%. In the assay with eGFP-STAT1 [3], the binding result is “no binding”.
